Test results as given in patent US20220220215A1.

Molecular target: human CD137 expressed on cells (Jurkat human CD137 NF-kB luciferase reporter cells; human CD8+ T cells) (human) (UniProt Q07011)
Assay: cell-based or functional assay

Urelumab analog (antibody)
CD8+ T-cell activation assay - IL-2 release, EC50: 0.397 nM
